Biological target: GST-MST3 (human, UniProt Q9Y6E0-2 1-431)
Assay: pull-down

binding result: binds
B1: His-SUMO-tagged PGAM5 (25-289) (domain or fragment, human, UniProt Q96HS1 25-289, looked up)
chain: AVAVGKPRAGGDAEPRPAEPPAWAGGARPGPGVWDPNWDRREPLSLINVRKRNVESGEEELASKLDHYKAKATRHIFLIRHSQYHVDGSLEKDRTLTPLGREQAELTGLRLASLGLKFNKIVHSSMTRAIETTDIISRHLPGVCKVSTDLLREGAPIEPDPPVSHWKPEAVQYYEDGARIEAAFRNYIHRADARQEEDSYEIFICHANVIRYIVCRALQFPPEGWLRLSLNNGSITHLVIRPNGRVALRTLGDTGFMPPDKITRS
